Positions count from the first letter of the chain named. In names and notes the source's numbering stands. Values belong to the binder of their own block, whether it stands above or below them.
Experiments:
hHsp90 = hHsp90 (human, UniProt P08238 1-724); experiment: SPR
yHsp90 = yHsp90 (yeast, UniProt P02829 1-709); experiment: SPR
yHsp70 [1] = biological target: T1, yHsp70 (yeast, UniProt P10591 1-642, 5-(and-6)-carboxyfluorescein coupled (in the analytical ultracentrifugation)); experiment: AUC
yHsp70 [2] = biological target: T1, yHsp70; experiment: SPR

T1 sequence (P10591 whole entry): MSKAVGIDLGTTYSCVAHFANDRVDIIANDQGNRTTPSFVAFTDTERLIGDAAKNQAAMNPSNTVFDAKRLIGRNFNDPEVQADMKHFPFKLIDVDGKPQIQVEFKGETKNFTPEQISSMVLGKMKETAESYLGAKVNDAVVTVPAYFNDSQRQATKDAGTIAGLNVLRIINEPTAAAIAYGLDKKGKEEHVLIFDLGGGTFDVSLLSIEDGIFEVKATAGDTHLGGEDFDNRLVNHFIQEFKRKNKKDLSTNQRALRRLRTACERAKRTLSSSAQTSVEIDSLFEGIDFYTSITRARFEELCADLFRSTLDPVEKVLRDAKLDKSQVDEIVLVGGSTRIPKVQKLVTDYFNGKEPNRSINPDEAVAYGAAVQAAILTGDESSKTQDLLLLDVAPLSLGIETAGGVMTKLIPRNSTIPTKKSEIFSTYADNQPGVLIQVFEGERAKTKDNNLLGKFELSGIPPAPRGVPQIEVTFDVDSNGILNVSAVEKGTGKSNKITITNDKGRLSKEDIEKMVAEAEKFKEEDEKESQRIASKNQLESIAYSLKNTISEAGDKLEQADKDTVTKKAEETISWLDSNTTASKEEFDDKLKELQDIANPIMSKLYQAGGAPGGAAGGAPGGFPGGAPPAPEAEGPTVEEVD
hHsp90, sequence (P08238 whole entry): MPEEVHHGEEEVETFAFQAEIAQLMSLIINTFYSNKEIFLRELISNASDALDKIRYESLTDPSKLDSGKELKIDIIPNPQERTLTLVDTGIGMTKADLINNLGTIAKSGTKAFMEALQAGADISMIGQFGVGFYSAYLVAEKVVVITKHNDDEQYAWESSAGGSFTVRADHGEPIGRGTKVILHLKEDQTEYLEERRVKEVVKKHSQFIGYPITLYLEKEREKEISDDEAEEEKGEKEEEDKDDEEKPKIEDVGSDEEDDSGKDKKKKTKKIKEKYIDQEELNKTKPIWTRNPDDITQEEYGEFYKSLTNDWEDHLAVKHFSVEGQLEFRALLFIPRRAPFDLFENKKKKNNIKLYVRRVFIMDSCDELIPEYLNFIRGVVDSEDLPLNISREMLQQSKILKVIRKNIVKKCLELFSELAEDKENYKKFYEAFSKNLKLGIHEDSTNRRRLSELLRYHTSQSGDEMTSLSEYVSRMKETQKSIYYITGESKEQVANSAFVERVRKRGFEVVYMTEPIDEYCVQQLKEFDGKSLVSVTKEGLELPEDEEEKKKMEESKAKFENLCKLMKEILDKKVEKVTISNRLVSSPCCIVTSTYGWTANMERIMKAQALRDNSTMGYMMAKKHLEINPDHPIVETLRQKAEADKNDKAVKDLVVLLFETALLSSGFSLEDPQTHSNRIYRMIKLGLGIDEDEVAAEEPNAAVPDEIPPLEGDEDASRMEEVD
yHsp90, sequence (P02829 whole entry): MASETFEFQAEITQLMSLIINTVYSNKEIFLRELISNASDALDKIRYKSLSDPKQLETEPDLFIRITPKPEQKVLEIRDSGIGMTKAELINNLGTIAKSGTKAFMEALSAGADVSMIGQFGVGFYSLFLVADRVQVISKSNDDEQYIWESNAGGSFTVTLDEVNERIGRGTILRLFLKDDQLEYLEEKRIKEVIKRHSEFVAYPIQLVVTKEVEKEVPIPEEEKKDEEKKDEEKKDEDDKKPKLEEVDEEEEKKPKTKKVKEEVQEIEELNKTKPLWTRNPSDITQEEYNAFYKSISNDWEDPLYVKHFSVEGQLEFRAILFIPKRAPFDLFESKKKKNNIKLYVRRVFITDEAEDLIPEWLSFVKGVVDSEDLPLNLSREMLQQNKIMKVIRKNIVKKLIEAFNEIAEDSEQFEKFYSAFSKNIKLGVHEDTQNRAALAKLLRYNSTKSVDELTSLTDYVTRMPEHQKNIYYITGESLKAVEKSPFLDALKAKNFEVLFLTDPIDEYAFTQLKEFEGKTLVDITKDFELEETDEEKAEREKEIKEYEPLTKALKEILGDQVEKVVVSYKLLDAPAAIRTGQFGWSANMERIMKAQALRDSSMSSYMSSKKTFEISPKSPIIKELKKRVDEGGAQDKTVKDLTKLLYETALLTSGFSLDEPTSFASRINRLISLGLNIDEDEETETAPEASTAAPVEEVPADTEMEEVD

B1: Sti1 (natural protein)
chain: MSLTADEYKQQGNAAFTAKDYDKAIELFTKAIEVSETPNHVLYSNRSACYTSLKKFSDALNDANECVKINPSWSKGYNRLGAAHLGLGDLDEAESNYKKALELDASNKAAKEGLDQVHRTQQARQAQPDLGLTQLFADPNLIENLKKNPKTSEMMKDPQLVAKLIGYKQNPQAIGQDLFTDPRLMTIMATLMGVDLNMDDINQSNSMPKEPETSKSTEQKKDAEPQSDSTTSKENSSKAPQKEESKESEPMEVDEDDSKIEADKEKAEGNKFYKARQFDEAIEHYNKAWELHKDITYLNNRAAAEYEKGEYETAISTLNDAVEQGREMRADYKVISKSFARIGNAYHKLGDLKKTIEYYQKSLTEHRTADILTKLRNAEKELKKAEAEAYVNPEKAEEARLEGKEYFTKSDWPNAVKAYTEMIKRAPEDARGYSNRAAALAKLMSFPEAIADCNKAIEKDPNFVRAYIRKATAQIAVKEYASALETLDAARTKDAEVNNGSSAREIDQLYYKASQQRFQPGTSNETPEETYQRAMKDPEVAAIMQDPVMQSILQQAQQNPAALQEHMKNPEVFKKIQTLIAAGIIRTGR
binding result (hHsp90): binds
fold stronger binding than to hHsp90 (yHsp90): ~2 fold
binding result (yHsp70 [1]): binds

B4: Sti1 S410E (natural protein)
chain: B1 chain with S410E
fold increase in KD against the wild type (yHsp70 [2]): ~2 fold

B8: Hop Y354E (natural protein)
chain: not shown
fold increase in KD against the wild type (yHsp70 [2]): ~2 fold

Continued, values first:

binding result (yHsp70 [2]): binds
B2: Sti1 S258E (natural protein)
chain: B1 chain with S258E

binding result (yHsp70 [2]): binds
B3: Sti1 S227E (natural protein)
chain: B1 chain with S227E

binding result (yHsp70 [1]): binds
B5: Sti1 S95E (natural protein)
chain: B1 chain with S95E

binding result (yHsp70 [2]): binds
B6: Sti1 T37E (natural protein)
chain: B1 chain with T37E

binding result (yHsp70 [2]): binds
B7: Hop S16E (natural protein)
chain: not shown
